Results as given in the supplement of paper PMC10567573.

B1: EPB41L3 (parent)
chain: FRFAPNHTKELEDKVIELHKSHRG
B2: KRT13 (parent)
chain: YGGGLGGGFGGGFAGGFVDFGACD

Variants of: B1
Assay: protein stability index of a GFP-peptide fusion (GPS, HEK-293T) (PSI 1-6); higher = more stable
Details: c terminus: a fixed tail appended
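Note: lentivirally expressed fusions sorted by FACS into six bins by GFP to DsRed ratio, PSI derived from sequencing read proportions per bin multiplied by bin number.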

Protein stability index: each site, then its substitutions
A4: C 2.2, H 2.42, R 3.33, V 1.82, P 2.98, Y 2.88, F 3.19, G 3.08, T 2.24, I 2.24, D 3.9, S 3.9, Q 2.18, W 2.41, N 3.77, M 2.65, K 3.06, L 2.82, E 2.87
N6: E 3.17, G 2.56, M 1.83, D 2, P 2.23, K 1.92, H 2.54, C 1.97, F 1.74, L 2.37, I 1.55
F3: K 4.63, T 3.99, Q 4.16, Y 2.28, C 3.74, E 4.57, I 3.86, R 3.6, S 4.07, V 4.42, M 4.02, H 4.03, W 2.97, N 4.21, P 4.25, D 4.48, L 3.48, A 3.78, G 4.63
F1: N 3.62, A 4.17, C 2.93, V 3.08, L 3.78, P 3.99, W 2.26, M 3.68, I 2.69, E 4.2, S 4.58, T 4.12, K 4.35, R 4.41, D 4.4, H 4.62, G 3.6, Y 3.73, Q 3.89
P5: S 1.92, F 1.24, A 2.73, D 3.38, I 2.63, R 2.15, K 3.47, L 2.75, V 2.37, T 2.44, G 1.98, N 2.24, E 3.49, M 2.31, C 2.4, Y 1.24, Q 2.07, H 2.31
R2: D 3.5, Q 3.89, M 2.89, W 2.88, C 3.36, F 2.81, I 2.03, V 2.36, P 3.82, A 3.49, H 2.01, T 3.79, K 3.81, E 4.02, Y 3.27, L 2.78, S 3.56, N 3.96, G 3.94

Variants of: B2
Assay: as above
Details: c terminus: a fixed tail appended

Protein stability index of substitutions, site by site:
G7: S 1.48, H 1.92, P 1.84, C 3.15, I 1.9, N 1.31, Q 1.23
G8: T 1.77, W 3.32, H 3, Q 1.23, C 1.26, E 1.72, V 2.48, D 2.41, N 1.78
A22: S 1.2, E 1.92, Y 1.99, N 1.95, V 2.4, D 1.42, F 2.1, T 1.9, C 1.9, W 1.75, L 1.2, P 2.27
F20: T 2.22, V 1.36, L 1.56, M 1.53, G 1.75, S 1.82, E 2.18, Q 2.36, N 2.31, I 1.27, H 2.69
G2: N 2.23, I 3.26, S 1.54, K 1.86, E 2.66, L 3.13, V 3.25, D 2.67, W 2.56
G6: R 1.54, H 1.79, I 3.11, D 1.89, W 3.1, S 1.4, T 2.19, A 2.4, P 3.58
Y1: R 2.76, I 2.54, H 2.9, F 1.16, E 3.3, V 3.53, M 2.43, S 3.23, T 2.73, L 1.92, K 2.68
G10: M 3.61, Y 3.74, C 4, Q 2.21, D 2.03, H 1.7, P 1.92, A 2.01, N 1.38, W 3.23, I 1.58
V18: H 2.44, C 1.38, A 2.34, I 1.6, D 1.93, T 2.17, K 2.09, E 1.78
G15: V 3.52, H 1.65, Y 1.67, E 1.89, Q 2.07, T 1.61, I 3.13, P 2.71
F17: S 1.89, N 2.55, C 2.18, V 2.37, T 1.77, D 2.43, P 1.81
G11: S 1.92, T 1.84, K 1.97, M 2.25, F 2.07, P 2.25, C 1.56, L 3.08, Y 4.04, V 2.4
D24: T 1.91, S 2.43, P 1.85, Q 1.91, F 2.17, V 2.45, K 1.43, E 2.57
G12: D 2.22, P 2.17, H 1.4, N 1.04, T 2.68, S 1.77, V 2.42, C 2.75, Q 1.39, Y 3.95, I 2.4, K 1.69
G16: M 2.76, S 1.83, A 1.81, H 1.4, L 4.03, Q 2.36, C 3.82, N 1.71, D 1.94, T 2.02, Y 2.16, K 1.53, R 1.8, I 2.53
G3: S 1.84, M 2.51, P 2.03, T 2.3, Y 1.21, W 1.18, Q 2.5, C 1.87, L 1.58, D 1.5, A 1.77, I 2.29
G4: D 2.52, I 1.93, T 1.87, K 2.84, W 2.33, S 2.42, R 2.02, E 1.95, P 2.03, Y 2.38
L5: A 1.64, T 2.22, K 1.51, F 1.38, G 1.87, C 1, V 2.73
F9: M 1.45, C 1.79, T 2.28, I 1.49, A 1.68, R 1.69, P 1.75, D 2.46, G 1.87, N 2
C23: E 2.14, Q 1.31, W 1.84, I 1.53, T 1.81, F 1.41, M 1.49, K 2.01, V 1.22, L 1.72
A14: E 1.81, W 2.15, Q 3.11, Y 2.65, S 1.86, K 1.82, T 1.84, C 2.47, P 2.02
D19: K 2, Q 1.41, S 2.12, T 1.95, C 1.86
F13: L 1.28, S 2.16, Q 2.8, P 2.09, R 1.77, Y 2.39, I 1.79, M 2.28, N 1.79, C 2.11
G21: Y 3.5, K 1.93, H 1.93, I 1.99, Q 1.76, C 1, N 1.68, M 2.21, A 2.25, R 2.37
